According to the supplement of paper PMC11136658:

System: peptide library, one residue held at a place counted from the Y acceptor
Assay: relative phosphorylation of the sub-library (ratio to the mean residue at this position); higher = residue favoured
In short: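 Purified recombinant kinases were incubated for 90 min in 384-well plates with biotinylated Tyr-centred peptide library mixtures, each fixing one residue at one position from −5 to +5, plus 50 μM ATP with γ-32P-ATP. Peptides were captured on streptavidin membranes, rinsed and quantified by phosphorimaging and ImageQuant. Intensities were normalized per position by the sum of the 18 (or 16, Ser/Thr-free library) randomized residues and multiplied by that number. Values give phosphorylation relative to the mean randomized residue.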

BMX, construct: Full length, human, sequence (P51813 whole entry, looked up): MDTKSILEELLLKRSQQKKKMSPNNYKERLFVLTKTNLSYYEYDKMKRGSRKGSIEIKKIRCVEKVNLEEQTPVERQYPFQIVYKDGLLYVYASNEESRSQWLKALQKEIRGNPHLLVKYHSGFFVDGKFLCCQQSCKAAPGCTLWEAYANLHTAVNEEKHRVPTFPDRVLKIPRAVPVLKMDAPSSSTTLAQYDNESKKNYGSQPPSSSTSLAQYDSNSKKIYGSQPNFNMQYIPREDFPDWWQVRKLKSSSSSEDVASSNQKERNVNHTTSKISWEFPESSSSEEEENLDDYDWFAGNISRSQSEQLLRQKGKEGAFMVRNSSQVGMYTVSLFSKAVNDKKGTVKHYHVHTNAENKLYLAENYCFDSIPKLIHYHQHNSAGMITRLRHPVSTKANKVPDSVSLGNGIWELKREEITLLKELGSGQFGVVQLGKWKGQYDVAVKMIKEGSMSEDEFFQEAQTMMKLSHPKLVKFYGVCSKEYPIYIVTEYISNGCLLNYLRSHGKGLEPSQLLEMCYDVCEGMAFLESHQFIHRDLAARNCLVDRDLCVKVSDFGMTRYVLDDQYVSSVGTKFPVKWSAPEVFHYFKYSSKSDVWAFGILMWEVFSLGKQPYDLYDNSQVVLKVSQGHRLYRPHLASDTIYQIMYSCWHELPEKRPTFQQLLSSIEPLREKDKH
EPHA3, construct: aa571-end, human, sequence (P29320 571-983, looked up): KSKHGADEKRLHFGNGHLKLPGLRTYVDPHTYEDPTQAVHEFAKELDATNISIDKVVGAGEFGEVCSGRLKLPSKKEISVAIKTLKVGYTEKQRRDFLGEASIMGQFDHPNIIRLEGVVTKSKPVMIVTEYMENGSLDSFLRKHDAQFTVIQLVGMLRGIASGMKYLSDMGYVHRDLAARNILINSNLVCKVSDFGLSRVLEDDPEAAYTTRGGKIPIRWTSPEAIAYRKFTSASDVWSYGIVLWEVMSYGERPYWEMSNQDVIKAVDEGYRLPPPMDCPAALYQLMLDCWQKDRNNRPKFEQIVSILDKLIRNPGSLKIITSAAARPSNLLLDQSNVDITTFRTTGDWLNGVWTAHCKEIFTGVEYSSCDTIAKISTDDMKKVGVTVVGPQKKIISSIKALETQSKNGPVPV

BMX, construct: Full length, human (from UniProt P51813)
relative phosphorylation
Details	at +1	at +2	at +3	at +4	at +5	at -1	at -2	at -3	at -4	at -5
A fixed	1.73	1.01	0.847	0.846	0.939	0.521	1.05	0.992	1.04	1.05
D fixed	0.82	0.761	0.324	0.746	0.903	0.726	1.43	1.48	1.31	1.11
E fixed	1.85	1.27	0.292	0.959	0.958	0.812	1.5	1.56	1.43	1.03
F fixed	0.504	1.02	1.53	0.876	1.11	1.13	0.558	1.12	0.855	0.993
G fixed	0.807	0.605	0.799	1.11	1.08	0.293	1.18	0.958	1.33	1.13
H fixed	0.451	0.611	2.04	1.1	1.01	0.643	0.912	0.864	0.866	0.921
I fixed	1.61	1.08	1.25	0.722	0.764	3.28	0.744	0.636	0.845	0.855
K fixed	0.251	0.768	0.639	0.881	0.914	0.281	0.792	0.672	0.898	1.03
L fixed	0.714	1	1.1	0.849	0.762	3.33	0.799	0.704	0.884	1.02
M fixed	1.28	0.979	1.15	1.06	1.04	1.24	0.71	0.805	0.958	0.938
N fixed	0.44	0.919	0.558	0.784	0.99	0.567	1.27	1.39	1.03	1.15
P fixed	0.166	0.873	0.569	1.12	1.3	0.5	1.38	1.13	1.27	1.19
Q fixed	1.26	1.02	1.09	1.19	0.953	0.652	1.3	1.08	1.26	1.1
R fixed	0.332	0.919	1.47	1.27	1.2	0.298	0.81	0.823	0.987	1.06
S fixed	1.38	1.27	0.866	0.935	1.1	0.475	1.18	1.08	0.797	0.923
T fixed	1.39	1.35	0.704	0.936	1.02	1.1	1.03	0.909	0.724	0.787
V fixed	1.74	1.42	1.24	0.898	0.788	1.64	0.866	0.792	0.738	0.867
W fixed	1.28	1.11	1.53	1.73	1.16	0.501	0.493	0.987	0.777	0.868
pThr fixed	2.3	2.57	0.296	0.734	0.603	2.21	1.19	1.25	1.09	0.986
pTyr fixed	1.29	2.49	0.504	0.852	0.858	9.03	1.27	1.46	1.22	1.05

EGFR, construct: aa668-end, human (from UniProt P00533)
relative phosphorylation
Details	at +1	at +2	at +3	at +4	at +5	at -1	at -2	at -3	at -4	at -5
A fixed	0.795	0.684	0.702	0.943	1.08	0.639	1.08	0.898	1.14	0.991
D fixed	0.496	1.29	1.17	1.09	1.12	2.93	1.74	2.12	1.58	1.34
E fixed	0.948	1.95	1.08	1.42	1.06	2.35	1.92	2.39	1.59	1.2
F fixed	2.04	1.23	1.06	0.967	1.06	0.716	0.637	0.848	1.01	0.989
G fixed	0.246	0.422	0.884	1.19	1.11	0.487	1.09	1.03	1.1	1.24
H fixed	1.4	0.836	0.882	1.08	0.904	0.988	0.813	0.949	0.77	0.989
I fixed	1.85	1.12	1.72	0.823	0.785	1.77	0.862	0.601	0.801	0.955
K fixed	0.26	0.498	0.34	0.895	0.935	0.315	0.605	0.561	0.789	0.794
L fixed	0.988	0.964	1.51	0.756	0.918	1.07	0.831	0.748	0.992	1
M fixed	0.826	1.03	1.02	1.11	0.902	0.757	0.821	0.776	0.855	0.96
N fixed	0.383	1.01	0.61	0.783	0.881	1.09	1.06	1.2	0.917	1.1
P fixed	0.313	0.623	0.824	1.1	1.66	0.721	1.11	0.934	1.1	1.07
Q fixed	0.804	0.905	0.941	0.969	0.827	0.768	1.13	0.881	1.08	0.954
R fixed	0.299	0.685	0.665	0.978	0.825	0.317	0.575	0.586	0.763	0.87
S fixed	0.762	0.843	0.79	0.931	1.14	0.546	1.13	0.995	0.827	0.88
T fixed	1.09	0.907	0.956	0.964	0.913	0.784	0.923	0.935	0.672	0.802
V fixed	2.64	1.05	1.47	0.88	0.899	1.16	0.979	0.7	0.825	0.851
W fixed	1.85	1.96	1.37	1.12	0.981	0.598	0.708	0.843	1.19	1
pThr fixed	1.41	1.5	0.796	1.02	1.08	2.05	1.57	1.61	1.41	1.2
pTyr fixed	11.9	5.31	0.921	1.45	1.01	5.3	2.06	2.19	2.18	1.69

EPHA3, construct: aa571-end, human (from UniProt P29320)
relative phosphorylation
Details	at +1	at +2	at +3	at +4	at +5	at -1	at -2	at -3	at -4	at -5
A fixed	1.63	0.63	0.711	0.794	1.05	0.536	1.11	0.827	1.03	0.924
D fixed	1.1	1.73	0.574	1.03	1.04	2.68	1.16	1.07	1.06	0.949
E fixed	1.89	1.71	0.544	1.06	0.941	1.19	1.04	1.17	1.05	0.848
F fixed	0.91	1.44	1.4	1.16	1.42	0.997	0.863	1.32	1.3	1.15
G fixed	0.902	0.424	0.526	1.14	0.981	0.389	1.04	0.853	1.01	1.02
H fixed	0.53	0.717	0.69	0.998	0.756	0.534	0.804	0.959	0.859	0.996
I fixed	1.18	1.02	2.34	0.801	0.925	1.83	0.939	1.11	0.974	0.999
K fixed	0.407	0.47	0.403	0.685	0.653	0.382	0.899	0.674	0.918	1.01
L fixed	0.982	0.908	1.62	0.754	1.19	1.75	1.13	0.995	1.34	1.11
M fixed	1.17	0.915	0.989	0.951	0.885	0.827	0.747	0.976	0.837	0.891
N fixed	0.556	1.05	0.514	0.809	0.774	2.18	0.942	1.06	0.817	1.03
P fixed	0.353	0.567	1.42	1.25	1.52	0.44	1.15	1.02	1.06	1.09
Q fixed	1.28	0.789	0.775	0.997	0.8	0.567	1.25	0.894	1.09	1.02
R fixed	0.473	0.601	0.505	0.809	0.648	0.411	0.842	0.806	0.847	0.982
S fixed	0.811	0.685	0.63	0.877	1.06	0.525	1.28	0.902	0.785	0.836
T fixed	0.694	0.742	0.589	0.866	0.841	0.867	0.805	0.885	0.653	0.774
V fixed	1.59	0.905	1.85	0.779	1.04	1.04	1.04	0.994	0.903	0.836
W fixed	1.54	2.7	1.92	2.23	1.47	0.849	0.966	1.48	1.48	1.53
pThr fixed	1.53	2.12	0.736	1.05	0.946	1.88	1.04	0.915	0.851	0.854
pTyr fixed	1.9	7.49	1.44	1.89	1.07	2.88	1.1	1.22	1.13	1.15
